Read-outs that look alike come from different tables or passages of the source. Values belong to the substance of their own block, whether it stands above or below them.
What was measured:
CD28 (human) [1] = molecular target: CD28 (human) (UniProt P10747); experiment: flow cytometry, Expi293F cells transfected with CD28
human CTLA-4 (human) [2] = molecular target: human CTLA-4 (human) (UniProt P16410); experiment: flow cytometry, Expi293F cells transfected with CTLA-4
CD28 (human) [3] = molecular target: CD28 (human) (UniProt P10747)
PD-L1 (human) [4] = molecular target: PD-L1 (human) (UniProt Q9NZQ7)
CD28 (human) [5] = molecular target: CD28 (human) (UniProt P10747); remark: listed apart in the source
human CTLA-4 (human) [6] = molecular target: human CTLA-4 (human) (UniProt P16410); experiment: flow cytometry, CHO cells expressing huCTLA4
PD-L1 (human) [7] = molecular target: PD-L1 (human) (UniProt Q9NZQ7); experiment: flow cytometry, CHO cells expressing huPD-L1
CD28 (human) [8] = molecular target: CD28 (human) (UniProt P10747); experiment: flow cytometry, Jurkat cells (CD28)
human CTLA-4 (human) [9] = molecular target: human CTLA-4 (human) (UniProt P16410); experiment: flow cytometry, CHO cells stably expressing CTLA4
PD-L1 (human) [10] = molecular target: PD-L1 (human) (UniProt Q9NZQ7); experiment: flow cytometry, CHO cells stably expressing PD-L1
PD-L1 (human) [11] = molecular target: PD-L1 (human) (UniProt Q9NZQ7); experiment: flow cytometry, Expi293F cells transfected with PD-L1
CD28 (human) [12] = molecular target: CD28 (human) (UniProt P10747); experiment: flow cytometry, Jurkat cells (CD28); remark: listed apart in the source
CD28 (human) [13] = molecular target: CD28 (human) (UniProt P10747); experiment: flow cytometry, Jurkat cells (CD28); remark: listed apart in the source
human CTLA-4 (human) [14] = molecular target: human CTLA-4 (human) (UniProt P16410); experiment: flow cytometry, CHO cells expressing CTLA4
PD-L1 (human) [15] = molecular target: PD-L1 (human) (UniProt Q9NZQ7); experiment: flow cytometry, CHO cells expressing PD-L1
human CTLA-4 (human) [16] = molecular target: human CTLA-4 (human) (UniProt P16410); experiment: flow cytometry, CHO cells stably expressing CTLA4; remark: listed apart in the source
PD-L1 (human) [17] = molecular target: PD-L1 (human) (UniProt Q9NZQ7); experiment: flow cytometry, CHO cells stably expressing PD-L1; remark: listed apart in the source
human CTLA-4 (human) [18] = molecular target: human CTLA-4 (human) (UniProt P16410); experiment: flow cytometry, CHO cells stably expressing CTLA4; remark: listed apart in the source
PD-L1 (human) [19] = molecular target: PD-L1 (human) (UniProt Q9NZQ7); experiment: flow cytometry, CHO cells stably expressing PD-L1; remark: listed apart in the source
[20] = molecular target: human CTLA-4 (huCTLA4), on stably transduced CHO cells (human) (UniProt P16410); experiment: flow cytometry on CHO cells stably expressing huCTLA4, 33.3 nM Fc fusion, PE anti-human Fc
[21] = molecular target: human PD-L1 (huPD-L1), on stably transduced CHO cells (human) (UniProt Q9NZQ7); experiment: flow cytometry on CHO cells stably expressing huPD-L1, 33.3 nM Fc fusion, PE anti-human Fc
[22] = molecular target: CD28, endogenously expressed on Jurkat/IL2 reporter cells (human) (UniProt P10747); experiment: flow cytometry on Jurkat/IL2 reporter cells (endogenous CD28), 33.3 nM Fc fusion, PE anti-human Fc

human CTLA-4 (human), sequence (P16410 36-223): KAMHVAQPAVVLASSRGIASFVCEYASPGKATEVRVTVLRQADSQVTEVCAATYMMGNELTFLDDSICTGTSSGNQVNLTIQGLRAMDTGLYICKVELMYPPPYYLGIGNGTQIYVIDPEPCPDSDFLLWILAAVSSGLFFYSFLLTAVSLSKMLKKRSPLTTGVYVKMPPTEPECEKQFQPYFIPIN
CD80 WT IgV-Fc (Fc fusion), sequence (chain): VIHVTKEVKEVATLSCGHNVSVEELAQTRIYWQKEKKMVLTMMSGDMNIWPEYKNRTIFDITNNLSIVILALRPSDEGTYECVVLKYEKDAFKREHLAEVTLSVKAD
PD-L1 (human), sequence (Q9NZQ7 19-290): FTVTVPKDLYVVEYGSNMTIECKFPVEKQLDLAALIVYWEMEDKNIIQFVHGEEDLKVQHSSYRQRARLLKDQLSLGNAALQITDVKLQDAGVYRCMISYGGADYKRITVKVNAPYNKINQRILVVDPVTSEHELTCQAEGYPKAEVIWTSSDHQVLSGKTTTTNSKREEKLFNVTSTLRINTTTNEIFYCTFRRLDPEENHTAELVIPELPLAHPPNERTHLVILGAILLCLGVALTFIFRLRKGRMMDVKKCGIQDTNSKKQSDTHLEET
human CTLA-4 (huCTLA4), on stably transduced CHO cells (human), sequence (P16410 36-223): as the sequence (P16410 36-223) above
human PD-L1 (huPD-L1), on stably transduced CHO cells (human), sequence (Q9NZQ7 19-290): as the sequence (Q9NZQ7 19-290) above

MFI (CD28 (human) [1]): 26 MFI
MFI (human CTLA-4 (human) [2]): 38 MFI
Substance: CD80 E24G/L25P/L70Q/A91G/I118V/T120S/N152T ECD-Fc (Fc fusion)

Jurkat/IL2 reporter RLU at 50 nM, K562/OKT3/PD-L1 aAPC (CD28 (human) [3]): 5040 RLU
Jurkat/IL2 reporter RLU at 50 nM, K562/OKT3 aAPC without PD-L1 (CD28 (human) [3]): 8680 RLU
Jurkat/IL2 reporter RLU at 50 nM, K562/OKT3/PD-L1 aAPC (PD-L1 (human) [4]): 5040 RLU
IL-2 release, primary T cells + K562/OKT3 (No PD-L1), 100 nM (CD28 (human) [5]): 26800
Substance: CD80 E35D/M47L IgV-Fc (effector) (Fc fusion)

Jurkat/IL2 reporter RLU at 50 nM, K562/OKT3/PD-L1 aAPC (CD28 (human) [3]): 4140 RLU
Jurkat/IL2 reporter RLU at 50 nM, K562/OKT3 aAPC without PD-L1 (CD28 (human) [3]): 7860 RLU
Jurkat/IL2 reporter RLU at 50 nM, K562/OKT3/PD-L1 aAPC (PD-L1 (human) [4]): 4140 RLU
IL-2 release, primary T cells + K562/OKT3 (No PD-L1), 100 nM (CD28 (human) [5]): 27000
Substance: CD80 E23G/A26S/E35D/T62N/A71D/L72V/L85M IgV-Fc (effector) (Fc fusion)

MFI at 33.3 nM (human CTLA-4 (human) [6]): 205000 MFI
MFI at 33.3 nM (PD-L1 (human) [7]): 43900 MFI
Substance: variant CD80 IgV-Fc I30V/E35D/M47V/A71G/A91V (Fc fusion)

Jurkat/IL2 reporter RLU at 50 nM, K562/OKT3/PD-L1 aAPC (CD28 (human) [3]): 5220 RLU
Jurkat/IL2 reporter RLU at 50 nM, K562/OKT3 aAPC without PD-L1 (CD28 (human) [3]): 8750 RLU
Jurkat/IL2 reporter RLU at 50 nM, K562/OKT3/PD-L1 aAPC (PD-L1 (human) [4]): 5220 RLU
IL-2 release, primary T cells + K562/OKT3 (No PD-L1), 100 nM (CD28 (human) [5]): 20600
Substance: CD80 H18Y/A26T/E35D/A71D/L85Q IgV-Fc (effector) (Fc fusion)

MFI at 33.3 nM (human CTLA-4 (human) [6]): 278000 MFI
MFI at 33.3 nM (PD-L1 (human) [7]): 19200 MFI
Substance: variant CD80 IgV-Fc E35D/M43I/M47V/K89N (Fc fusion)

MFI (CD28 (human) [1]): 66 MFI
MFI (human CTLA-4 (human) [2]): 141 MFI
Substance: CD80 R29H/E52G/D90N/I118V/T120S/T130A ECD-Fc (Fc fusion)

Fold change to WT CD80 (CD28 (human) [8]): 23.3 fold
MFI at 33.3 nM (CD28 (human) [8]): 962 MFI
MFI at 33.3 nM (human CTLA-4 (human) [9]): 22000 MFI
Fold change to WT CD80 (PD-L1 (human) [10]): 131 fold
MFI at 33.3 nM (PD-L1 (human) [10]): 9280 MFI
Substance: CD80 IgV-Fc H18Y/E35D/V68M/L85M/R94Q (Fc fusion)

MFI (PD-L1 (human) [11]): 85 MFI
parental ratio (PD-L1 (human) [11]): 1.21
MFI (human CTLA-4 (human) [2]): 200 MFI
Substance: CD80 A91G ECD-Fc (Fc fusion)

MFI (CD28 (human) [1]): 33 MFI
MFI (human CTLA-4 (human) [2]): 121 MFI
Substance: CD80 L65H/D90G/T110A/F116L ECD-Fc (Fc fusion)

MFI (CD28 (human) [1]): 61 MFI
Substance: CD80 M38T/L70Q/E77G/A91G/I118V/T120S/T130A/N152T ECD-Fc (Fc fusion)

MFI at 33.3 nM (CD28 (human) [12]): 95 MFI
MFI at 33.3 nM (CD28 (human) [12]; record 2): 41 MFI
MFI at 33.3 nM (CD28 (human) [8]): 41.2 MFI
MFI at 33.3 nM (CD28 (human) [13]): 43.9 MFI
MFI at 33.3 nM (human CTLA-4 (human) [14]): 26400 MFI
MFI at 33.3 nM (PD-L1 (human) [15]): 44 MFI
MFI at 33.3 nM (human CTLA-4 (human) [16]): 1030 MFI
MFI at 33.3 nM (PD-L1 (human) [17]): 83 MFI
MFI at 33.3 nM (human CTLA-4 (human) [9]): 1040 MFI
MFI at 33.3 nM (PD-L1 (human) [10]): 70.9 MFI
MFI at 33.3 nM (human CTLA-4 (human) [18]): 1360 MFI
MFI at 33.3 nM (PD-L1 (human) [19]): 43.6 MFI
MFI at 33.3 nM [20]: 1920 MFI
MFI at 33.3 nM [21]: 70.3 MFI
MFI at 33.3 nM [22]: 66 MFI
Substance: CD80 WT IgV-Fc (Fc fusion)

MFI (PD-L1 (human) [11]): 6 MFI
Substance: CD80 Y31H/T41G/M43L/L70Q/A91G/I118V/T120S/I126V/T130A ECD-Fc (Fc fusion)

MFI (CD28 (human) [1]): 5 MFI
Substance: CD80 M38V/T41D/M43I/W50G/D76G/V83A/K89E/I118V/T120S/I126V/T130A ECD-Fc (Fc fusion)

MFI at 33.3 nM (human CTLA-4 (human) [9]): 19200 MFI
MFI at 33.3 nM (PD-L1 (human) [10]): 2080 MFI
Substance: CD80 IgV-Fc H18Y/E35D/D46E/M47I/V68M/R94L (Fc fusion)

MFI at 33.3 nM (human CTLA-4 (human) [6]): 226000 MFI
MFI at 33.3 nM (PD-L1 (human) [7]): 693 MFI
Substance: variant CD80 IgV-Fc E35D/M47V/T62A/A71D/K93E (Fc fusion)

MFI at 33.3 nM (human CTLA-4 (human) [6]): 204000 MFI
MFI at 33.3 nM (PD-L1 (human) [7]): 21800 MFI
Substance: variant CD80 IgV-Fc E35D/M38T/M43V/M47V/N48R/L85Q (Fc fusion)

Jurkat/IL2 reporter RLU at 50 nM, K562/OKT3/PD-L1 aAPC (CD28 (human) [3]): 663 RLU
Jurkat/IL2 reporter RLU at 50 nM, K562/OKT3 aAPC without PD-L1 (CD28 (human) [3]): 1250 RLU
Jurkat/IL2 reporter RLU at 50 nM, K562/OKT3/PD-L1 aAPC (PD-L1 (human) [4]): 663 RLU
Substance: WT CD80 IgV-Fc (Fc fusion)

— patent US20220177587A1, “METHODS AND USES OF VARIANT CD80 FUSION PROTEINS AND RELATED CONSTRUCTS” (Alpine Immune Sciences, Inc., priority 2018, published 2022)
